Reference: patent US20190359693A1
Residue numbers refer to the chain shown, from its start.

B1: MD2307 (bispecific antibody)
chain: EVQLVESGGGLVQPGGSLRLSCAATGFTLENKAIGWFRQTPGSEREGVLCISKSGSWTYYTDSMRGRFTISRDNAENTVYLQMDSLKPEDTAVYYCATTTAGGGLCWDGTTFSRLASSWGQGTQVTVSSGGGGSGGGGSEVQLVESGGGLVQAGDSLRISCAASGRTLSIYSMGWFRQAPGKEREFVATIGWNSGRTFYPDSLKGRFTISRDNARNTLYLQMNNLRPEDTAVYYCAAAKGPLRLSSQADYWGQGTQVTVSSGGGGSGGGGSEVQLVESGGGLVQAGDSLRLSCAASGPTFGMSAMGWFRQAPGKEREFVAAISGLGNPNYSDDVKGRFTISRENGRNTVYLQMNSLKPEDTAVYYCAQRKVYHVQGGDRPQAYDYWGQGTQVTVSS
B2: SD1018 (VHH)
VHH: EVQLVESGGGLVQAGGSLRLSCAASGQTYHMGWFRQTPGNERESVAAVTWSGAVTRYADSVKGRFTISRDNAKNTVYLQMNSLVPEDTAIYYCAATRSMAPIIQLSPGSYDYWGPGTQVTVSS
B3: SD1027 (VHH)
VHH: EVQLVESGGGMVQAGGSLRLSCAASGGTFSLYHMGWFRQAPGEEREFVAAISGSGGNTYYADSVKGRFTISRDNNKNTVYLQMSSLEPEDTAVYFCAAMKWPGILRDANAYDYWGQGTQVTVSS
B4: SD1071 (VHH)
VHH: EVQLVESGGGLVQTGESLRLSCAFSGFTYSTYWMYWVRQGPEKGLKWVSSTNAAGTVTYYAANVRDRFTASKDNAKNTLYLQMNRLKPEDTGLYYCASKDGLIVAATLDDYDYRGQGTQVTVSS
B5: SD1072 (VHH)
VHH: EVQLVESGGGLVEAGGSLRLSCAVSGRTFSMYATGWFRQAPGKEREFVAAINSSGDKTTYADSVEGRFTISRDIGTVYLQMNNLNPEDTAVYYCAAARTLAVVTIPGGYEYWGQGTQVTVSS
B6: SD1074 (VHH)
VHH: EVQLVESGGGLVQAGGSLRLSCAASRNFDAIGAMGWYRQAPGKQRELVAEITSDGSTNYTDSVKGRFTISRDNALRTMYLQMNALEPEDTAVYYCKADISIYGLTNFPYWGQGTQVTVSS
B7: SD1047 (VHH)
VHH: EVQLVESGGGLVQAGGSLRISCAASGRTYAMAWFRQAPGKEREFVAHINALGTRTYYSDSVKDRFTISRDNAKNTEYLQMNSLKPEDTAVYYCVAGGQWRAAPVAAAESYDFWGQGTQVTVSS
B8: SD3067 (VHH)
VHH: EVQLVESGGGLVQPGGSLRLSCAASGRTLSIYSMGWFRQAPGKEREFVATIGWNSGRTFYPDSLKGRFTISRDNSKNTLYLQMNSLRAEDTAVYYCAAAKGPLRLSSQADYWGQGTLVTVSS
B9: SD3068 (VHH)
VHH: B8 VHH with A49S
B10: SD3031 (VHH)
VHH: EVQLVESGGGLVQPGGSLRLSCAVSISIFDIYAMDWYRQAPGKQRDLVATSFRDGSTNYADSVKGRFTISRDNAKNTLYLQMNSLKPEDTAVYLCHVSLYRDPLGVAGGVGVYWGKGALVTVSS
B11: SD3078 (VHH)
VHH: EVQLVESGGGVVQPGGSLRLSCAASISIFDIYAMDWYRQAPGKQRELVSVSFRDGSTYYADSVKGRFTISRDNSKNTLYLQMNSLRAEDTAVYYCHVSLYRDPLGVAGGLGVYWGQGTLVTVSS
B12: SD3080 (VHH)
VHH: B11 VHH with S49A, A87P
B13: SD3089 (VHH)
VHH: B11 VHH with D35H
B14: SD3014 (VHH)
VHH: B11 VHH with S49A, Y94L, L110M, Q116K, T118A
B15: SD3015 (VHH)
VHH: B11 VHH with Y94L, L110M, Q116K, T118A
B16: SD3016 (VHH)
VHH: B11 VHH with S49A, A87P, Y94L, L110M, Q116K, T118A
B17: SD3017 (VHH)
VHH: B11 VHH with D35H, S49A, V50T, Y94L, L110M, Q116K, T118A
B18: SD3018 (VHH)
VHH: B11 VHH with D35H, S49A, Y94L, L110M, Q116K, T118A
B19: SD3019 (VHH)
VHH: B11 VHH with D35H, Y94L, L110M, Q116K, T118A
B20: SD3020 (VHH)
VHH: B11 VHH with D35H, S49A, A87P, Y94L, L110M, Q116K, T118A
B21: SD3032 (VHH)
VHH: B10 VHH with V110A
B22: SD3033 (VHH)
VHH: B10 VHH with V110F
B23: SD1035 (VHH)
VHH: EVQLVESGGGLVQAGGTLRLSCAASGSAVSISRMAWYRQAPGKQRELVADIFSGGGTNYADSVKGRFTISRDNAKNTVDLQMNSLKPEDTAVYYCSARSAVAAIHWDQYDYWGQGTQVTVSS

Target: hemagglutinin (HA) of influenza virus H7N3 A/NIBRG/60 (A/mallard/Netherlands/12/00) (influenza A virus)
Experiment: cell-based or functional assay

B1 showed an average neutralization titer of 18.1 nM.

Target: HA of H5N1 A/Vietnam/1194/04 (influenza A virus)
Experiment: cell-based or functional assay

Compared with B2, B3 is higher in VNA titer: 615 nM for the first, greater than 1000 nM for the second.

First: B4
Second: B5
The VNA titer of the first is 4-fold lower: 111 nM for the first, 444 nM for the second.

Going from B6 to B7, the VNA titer rises from 638 nM to greater than 1000 nM.

Target: hemagglutinin (HA) of influenza A/Brisbane/10/07 (H3N2) (influenza A virus A/Brisbane/10/07 (H3N2))
Experiment: cell-based or functional assay

B8 and B9 are within 1.5-fold of each other in VNA IC50: 3 nM for the first, 4 nM for the second.

First: B10
Second: B11
The VNA IC50 of the first is higher: greater than 1000 nM for the first, 632 nM for the second.

Going from B12 to B13, the VNA IC50 rises from 632 nM to 1190 nM (1.9-fold).

Target: hemagglutinin (HA) of influenza A/New Caledonia/20/99 (H1N1) (influenza A virus A/New Caledonia/20/99 (H1N1))
Experiment: cell-based or functional assay

B14 and B15 are the same in VNA IC50: 3 nM for the first, 3 nM for the second.

B16 and B17 are within 1.5-fold of each other in VNA IC50: 3 nM for the first, 4 nM for the second.

Going from B18 to B19, the VNA IC50 falls from 6 nM to 4 nM (1.5-fold).

First: B20
Second: B10
The VNA IC50 of the first is 9.2-fold lower: 4 nM for the first, 37 nM for the second.

Compared with B21, B22 is lower in VNA IC50: greater than 500 nM for the first, 51 nM for the second.

Compared with B11, B12 is 1.6-fold lower in VNA IC50: 8 nM for the first, 5 nM for the second.

In the case of B13, the VNA IC50 is reported as 3 nM.

Target: HA of H7N3 A/NIBRG/60 (A/mallard/NL/12/00) (influenza A virus)
Experiment: cell-based or functional assay

B2 and B3 cannot be ordered by VNA titer: greater than 1000 nM for the first, greater than 1000 nM for the second.

B23 and B4 cannot be ordered by VNA titer: greater than 1000 nM for the first, greater than 1000 nM for the second.

B5 and B6 cannot be ordered by VNA titer: greater than 1000 nM for the first, greater than 1000 nM for the second.

In the case of B7, the VNA titer is reported as 510 nM.

Target: HA of H1N1 A/New Caledonia/20/1999 (influenza A virus)
Experiment: cell-based or functional assay

Compared with B2, B3 is lower in VNA titer: greater than 1000 nM for the first, 862 nM for the second.

Compared with B23, B4 is 17-fold higher in VNA titer: 74.8 nM for the first, 1260 nM for the second.

B5 and B6 are within 1.5-fold of each other in VNA titer: 78.5 nM for the first, 113 nM for the second.

Target: hemagglutinin (HA) of influenza virus H3N2 A/Brisbane/10/07 (influenza A virus)
Experiment: cell-based or functional assay

B1 gave an average neutralization titer of 30.4 nM.

Target: hemagglutinin (HA) of influenza A/New York/107/03 (PR8) (influenza A virus A/New York/107/03 (PR8))
Experiment: cell-based or functional assay

First: B8
Second: B9
The VNA IC50 of the first is 1.6-fold lower: 16 nM for the first, 26 nM for the second.

Target: hemagglutinin (HA) of influenza A/Vietnam/1194/04 (H5N1) (influenza A virus A/Vietnam/1194/04 (H5N1))
Experiment: cell-based or functional assay

First: B14
Second: B15
The VNA IC50 of the first is 1.8-fold higher: 11 nM for the first, 6 nM for the second.

B16 and B17 are within 1.5-fold of each other in VNA IC50: 8 nM for the first, 11 nM for the second.

B18 and B19 are the same in VNA IC50: 8 nM for the first, 8 nM for the second.

Going from B20 to B10, the VNA IC50 rises from 15 nM to 51 nM (3.4-fold).

First: B21
Second: B22
The VNA IC50 of the first is higher: greater than 500 nM for the first, 316 nM for the second.

B11 and B12 are within 1.5-fold of each other in VNA IC50: 20 nM for the first, 16 nM for the second.

With B13 the VNA IC50 was 20 nM.

Target: hemagglutinin (HA) of influenza virus H5N1 A/Vietnam/1194/04 (influenza A virus)
Experiment: cell-based or functional assay

Binder B1 has an average neutralization titer of 21.6 nM.

Target: HA of H3N2 A/Brisbane/10/2007 (influenza A virus)
Experiment: cell-based or functional assay

B2 and B3 cannot be ordered by VNA titer: greater than 1000 nM for the first, greater than 1000 nM for the second.

B4 and B5 cannot be ordered by VNA titer: greater than 1000 nM for the first, greater than 1000 nM for the second.

Work on B6 yielded a VNA titer greater than 1000 nM.
